Experimental data reported in US20200407456A1 (published 2020).

B1: anti-CD137 antibody clone 54 (antibody, V domains shown)
VH: QVQLVQSGAEVKKPGSTVKVSCKASGGTFSSYAISWVRQAPGQGLEWMGRIIPILGIANYAQKFQGRVTITADKSTSTAYMELSSLRSEDTAVYYCASPPYYDSSGYYPLGAFDIWGQGTMVTVSS
VL: SYELTQPPSVSVSPGQTASITCSGDKLGEKYASWYQQKAGQSPILVIYQDSKRPSGIPERFSGSNSGNTATLTISGLQAGDEADYYCQAWDGSSTYVFGTGTKVTVFG
B2: anti-CD137 antibody clone 31 (antibody, V domains shown)
VH: not shown
VL: QSALTQPASVSGSPGQSITISCTGTSSDVGAYNFVSWYQQRPGKAPELMIYDVSDRPSGVSNRFSGSKSGNTASLTISGLQTEDEADYYCSSYTSSITRYVFGTGTKVTVLG

Target: recombinant human CD137-ECD-Fc (APBio Inc.) (human, UniProt Q07011 24-186)
Sequence (Q07011 24-186): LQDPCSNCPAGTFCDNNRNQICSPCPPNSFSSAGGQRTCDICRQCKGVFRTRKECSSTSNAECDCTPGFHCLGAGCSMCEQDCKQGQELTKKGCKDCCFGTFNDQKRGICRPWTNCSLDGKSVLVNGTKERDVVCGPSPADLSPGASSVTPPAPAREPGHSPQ
Experiment: ELISA

EC50 [nM]	Binder
0.184	B1
0.151	B2
